Key:
Experiment in all cases: controlled Fab-arm exchange read by hydrophobic interaction chromatography; equimolar parental antibodies, 1 mg/mL each, 75 mM 2-MEA, 5 h at 31 °C; 2-MEA removed, overnight at 4 °C for re-oxidation; percent bispecific product from HIC peak areas
[1] = target: IgG1-CH3(mmG2a)-T370K-K409R parental antibody (7D8-derived) (human | mouse)
[2] = target: IgG1-CH3(mmG2a)-K409R parental antibody with the R411T mutation (7D8-derived) (human | mouse)
[3] = target: mmIgG2b-K409R parental antibody (7D8-derived) (human | mouse)
Sequence of mmIgG2b-K409R parental antibody (7D8-derived) (human | mouse) (heavy, as listed by the source, chain 1 of 2): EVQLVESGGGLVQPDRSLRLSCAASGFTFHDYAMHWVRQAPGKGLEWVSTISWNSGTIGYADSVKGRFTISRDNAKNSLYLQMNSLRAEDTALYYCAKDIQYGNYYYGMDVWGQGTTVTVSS
Sequence of mmIgG2b-K409R parental antibody (7D8-derived) (human | mouse) (light, as listed by the source, chain 2 of 2): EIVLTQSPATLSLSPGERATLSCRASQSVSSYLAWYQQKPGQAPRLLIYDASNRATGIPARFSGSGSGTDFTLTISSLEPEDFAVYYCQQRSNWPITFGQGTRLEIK

Sequence of IgG1-CH3(mmG2a)-T370K-K409R parental antibody (7D8-derived) (human | mouse) (heavy, as listed by the source, chain 1 of 2): as the sequence (heavy, as listed by the source, chain 1 of 2) above
Sequence of IgG1-CH3(mmG2a)-T370K-K409R parental antibody (7D8-derived) (human | mouse) (light, as listed by the source, chain 2 of 2): as the sequence (light, as listed by the source, chain 2 of 2) above
Sequence of IgG1-CH3(mmG2a)-K409R parental antibody with the R411T mutation (7D8-derived) (human | mouse) (heavy, as listed by the source, chain 1 of 2): as the sequence (heavy, as listed by the source, chain 1 of 2) above
Sequence of IgG1-CH3(mmG2a)-K409R parental antibody with the R411T mutation (7D8-derived) (human | mouse) (light, as listed by the source, chain 2 of 2): as the sequence (light, as listed by the source, chain 2 of 2) above

Row | Substance | cFAE efficiency (percent bispecific product by HIC) [1] [%] | cFAE efficiency (percent bispecific product by HIC) [2] [%] | cFAE efficiency (percent bispecific product by HIC) [3] [%]
1 | IgG1-CH3(mmG2a)-F405L parental antibody (2F8-derived) | > 90 | – | –
2 | IgG1-CH3(mmG2a)-F405L parental antibody with the T370K mutation (2F8-derived) | 76 | – | –
3 | IgG1-CH3(mmG2a)-F405L-R411T parental antibody (2F8-derived) | > 90 | 61 | –
4 | mmIgG2b-F405L parental antibody (2F8-derived) | – | – | 80

— paper PMC5449386
